T1: Lys(Dnp)-ATNATYKPRIVGG-Lys(Abz)
T1 chain: KATNATYKPRIVGGK

T2: Lys(Dnp)-ATNATDLPRIVGG-Lys(Abz)
T2 chain: KATNATDLPRIVGGK

T3: Lys(Dnp)-ATNATFNPRIVGG-Lys(Abz)
T3 chain: KATNATFNPRIVGGK

T4: Lys(Dnp)-ATNATKSPRIVGG-Lys(Abz)
T4 chain: KATNATKSPRIVGGK

T5: Lys(Dnp)-ATNATMSPRIVGG-Lys(Abz)
T5 chain: KATNATMSPRIVGGK

T6: Lys(Dnp)-ATNATSYPRIVGG-Lys(Abz)
T6 chain: KATNATSYPRIVGGK

T7: Lys(Dnp)-ATNATTRPRIVGG-Lys(Abz)
T7 chain: KATNATTRPRIVGGK


How the values were obtained:
[1] = molecular target: T1, Lys(Dnp)-ATNATYKPRIVGG-Lys(Abz)
[2] = molecular target: T2, Lys(Dnp)-ATNATDLPRIVGG-Lys(Abz)
[3] = molecular target: T3, Lys(Dnp)-ATNATFNPRIVGG-Lys(Abz)
[4] = molecular target: T4, Lys(Dnp)-ATNATKSPRIVGG-Lys(Abz)
[5] = molecular target: T5, Lys(Dnp)-ATNATMSPRIVGG-Lys(Abz)
[6] = molecular target: T6, Lys(Dnp)-ATNATSYPRIVGG-Lys(Abz)
[7] = molecular target: T7, Lys(Dnp)-ATNATTRPRIVGG-Lys(Abz)

Protein	FXa kcat/KM [1]	FXa kcat/KM [2]	FXa kcat/KM [3]	FXa kcat/KM [4]	FXa kcat/KM [5]	FXa kcat/KM [6]	FXa kcat/KM [7]
Human plasma purified Factor Xa (protein) chain 1: ANSFLEEMKKGHLERECMEETCSYEEAREVFEDSDKTNEFWNKYKDGDQCETSPCQNQGKCKDGLGEYTCTCLEGFEGKNCELFTRKLCSLDNGDCDQFCHEEQNSVVCSCARGYTLADNGKACIPTGPYPCGKQTLER chain 2: IVGGQECKDGECPWQALLINEENEGFCGGTILSEFYILTAAHCLYQAKRFKVRVGDRNTEQEEGGEAVHEVEVVIKHNRFTKETYDFDIAVLRLKTPITFRMNVAPACLPERDWAESTLMTQKTGIVSGFGRTHEKGRQSTRLKMLEVPYVDRNSCKLSSSFIITQNMFCAGYDTKQEDACQGDSGGPHVTRFKDTYFVTGIVSWGEGCARKGKYGIYTKVTAFLKWIDRSMKTRGLPKAKSHAPEVITSSPLK	25 M⁻¹ s⁻¹	–	–	–	–	–	–
Human plasma purified Factor Xa (Molecular Innovations, Inc) (protein) chain 1: ANSFLEEMKKGHLERECMEETCSYEEAREVFEDSDKTNEFWNKYKDGDQCETSPCQNQGKCKDGLGEYTCTCLEGFEGKNCELFTRKLCSLDNGDCDQFCHEEQNSVVCSCARGYTLADNGKACIPTGPYPCGKQTLER chain 2: IVGGQECKDGECPWQALLINEENEGFCGGTILSEFYILTAAHCLYQAKRFKVRVGDRNTEQEEGGEAVHEVEVVIKHNRFTKETYDFDIAVLRLKTPITFRMNVAPACLPERDWAESTLMTQKTGIVSGFGRTHEKGRQSTRLKMLEVPYVDRNSCKLSSSFIITQNMFCAGYDTKQEDACQGDSGGPHVTRFKDTYFVTGIVSWGEGCARKGKYGIYTKVTAFLKWIDRSMKTRGLPKAKSHAPEVITSSPLK	–	27 M⁻¹ s⁻¹	200 M⁻¹ s⁻¹	84 M⁻¹ s⁻¹	570 M⁻¹ s⁻¹	13 M⁻¹ s⁻¹	37 M⁻¹ s⁻¹

Source: patent publication US20160024487
